Laboratory results published in publication PMC9953004, “Scandium-44 Radiolabeled Peptide and Peptidomimetic Conjugates Targeting Neuropilin-1 Co-Receptor as Potential Tools for Cancer Diagnosis and Anti-Angiogenic Therapy” (Biomedicines, 2023).
Where two headings read alike, the source gives them in different places. Where a SMILES comes first, the peptide text is derived from it. [ ]: non-standard residue; d: D form. The star is where a group is joined. DOTA = O=C(O)CN1CCN(CC(=O)O)CCN(CC(=O)*)CCN(CC(=O)O)CC1

Tests used:
[1] = pH 7.4; cited from earlier work
[2] = physchem; assay type: physicochemical; details: pH 7.4
Description: The lipophilicity value, defined as the decimal logarithm (logP) of the partition coefficient (P), was tested in the system of two immiscible (but saturated with each other) phases: 0.1 M PBS solution, pH 7.4, and n-octanol, in three independent experiments. Partition coefficient was determined as a ratio of radioactivity of the organic (n-octanol) and aqueous (PBS solution) phases and was shown as the mean ± SD. The lipophilicity test was carried out as follows: the tested radiocompound dissolved in 10–20 µL of PBS was incubated and intensively mixed in an equal amount of these two phases. After centrifugation, radioactivity of appropriate amounts of the separated organic (500 µL) and aqueous (100 µL) phases were measured on the Wizard gamma counter. Differences in the volume of phases taken for measurement resulted from the very low radioactivity of organic phases and were included in the calculations. Additionally, to confirm the stability of the studied radiocompounds during the experiment, the RP-HPLC analyses of the aqueous phase were performed after each lipophilicity test.

[3] = assay type: in vitro ADME, human
Description: (§1) Radioconjugate stability tests in 0.1 M PBS solution, 1 mM cysteine (Cys) solution, 1 mM histidine (His) solution and human serum (HS) were performed under rigorous conditions according to the procedure described in detail in our previous paper. In brief, isolated radioconjugates were dissolved in 50 µL PBS and appropriate volume of Cys, His and HS solution and then incubated at 37 °C. After the specified incubation time (depending on the half-life of a given radionuclide), which was up to 4–8 h for the ^44Sc-radiocompounds, 4 h for the ^68Ga-radiocompounds and about 6–14 days for the ^177Lu-radiocompounds, aliquots of solution were withdrawn from the mixture and the composition of the solution was analyzed on RP-HPLC in System 3 or 4 with gamma detection. The concentrations of Cys and His solutions were about 1000 times higher than that of the studied radiocompound. In the case of the radioconjugate stability study in HS, the concentration of the radiocompound was a maximum of 2–25 nmol/mL in 100% human serum. After incubation, the protein components were precipitated with a 2.5-fold volume excess of ethanol prior to RP-HPLC analysis, and then both the supernatant and precipitate radioactivity were measured with a Wizard gamma counter. The percentage of radioactivity remaining in the supernatant and bound by the precipitated serum protein components was calculated as the ratio of the radioactivity of the supernatant or the precipitate, respectively, to the sum of the radioactivity of the supernatant and the precipitate.

[4] = assay type: physicochemical; details: pH 7.4
Description: as §1

Compound | logP ± SD [1] | logP ± SD [2] | stability in human serum [3] | stability in PBS buffer [4]
[^68Ga]Ga-DOTA-Ahx-A7R [^68Ga-1] | −3.92 ± 0.03 |  |  | 
[^68Ga]Lys(hArg)-Dab(Ahx-DOTA-Ga)-Pro-Arg [^68Ga-2] | −4.57 ± 0.05 |  |  | 
[^177Lu]Lu-DOTA-Ahx-A7R [^177Lu-1] | −3.40 ± 0.14 |  |  | 
[^177Lu]Lys(hArg)-Dab(Ahx-DOTA-Lu)-Pro-Arg [^177Lu-2] | −3.75 ± 0.08 |  |  | 
CC(C)C[C@@H](NC(=O)[C@H]1CCCN1C(=O)[C@H]1CCCN1C(=O)[C@H](N)CCCNC(=N)N)C(=O)N[C@H](Cc1c[nH]c2ccccc12)C(=O)N[C@@H](C(=O)N[C@H](C)C(=O)N[C@H](CCCCNC(=O)CN1CCN(CC(=O)O)CCN(CC(=O)O)CCN(CC(=O)O)CC1)C(=O)O)[C@H](C)O [^68Ga-3, [^68Ga]^DR7A-^DLys(DOTA-Ga), metal not drawn] (H-[dR][dP][dP][dL][dW][dT][dA][dK](DOTA)-OH) |  | −4.11 ± 0.06 | insufficient stability | complete stability
CC(C)C[C@@H](NC(=O)[C@H]1CCCN1C(=O)[C@H]1CCCN1C(=O)[C@H](N)CCCNC(=N)N)C(=O)N[C@H](Cc1c[nH]c2ccccc12)C(=O)N[C@@H](C(=O)N[C@H](C)C(=O)N[C@H](CCCCNC(=O)CN1CCN(CC(=O)O)CCN(CC(=O)O)CCN(CC(=O)O)CC1)C(=O)O)[C@H](C)O [^177Lu-3, [^177Lu]^DR7A-^DLys(DOTA-Lu), metal not drawn] (H-[dR][dP][dP][dL][dW][dT][dA][dK](DOTA)-OH) |  | −4.48 ± 0.05 | insufficient stability | complete stability
CC(C)C[C@@H](NC(=O)[C@H]1CCCN1C(=O)[C@H]1CCCN1C(=O)[C@H](N)CCCNC(=N)N)C(=O)N[C@H](Cc1c[nH]c2ccccc12)C(=O)N[C@@H](C(=O)N[C@H](C)C(=O)N[C@H](CCCCNC(=O)CN1CCN(CC(=O)O)CCN(CC(=O)O)CCN(CC(=O)O)CC1)C(=O)O)[C@H](C)O [^44Sc-3, [^44Sc]^DR7A-^DLys(DOTA-Sc), metal not drawn] (H-[dR][dP][dP][dL][dW][dT][dA][dK](DOTA)-OH) |  | −3.61 ± 0.03 | insufficient stability | complete stability
CC(C)C[C@H](NC(=O)[C@H](Cc1c[nH]c2ccccc12)NC(=O)[C@@H](NC(=O)[C@H](C)NC(=O)[C@@H](N)CCCCNC(=O)CN1CCN(CC(=O)O)CCN(CC(=O)O)CCN(CC(=O)O)CC1)[C@@H](C)O)C(=O)N1CCC[C@H]1C(=O)N1CCC[C@H]1C(=O)N[C@@H](CCCNC(=N)N)C(=O)O [^68Ga-1bis, [^68Ga]Lys(DOTA-Ga)-A7R, metal not drawn] (H-K(DOTA)ATWLPPR-OH) |  | −4.18 ± 0.07 | insufficient stability | complete stability
